One protein from article PMC10950212, “Structure and antigenicity of the divergent human astrovirus VA1 capsid spike” (PLOS Pathogens, 2024) can be followed below.

The data set deals with the molecule itself. The experiment in a line: SEC; Superdex 200 increase 10/300; retention volume compared with Bio-Rad gel filtration standards; 20 mM Tris-HCl pH 8.0, 150 mM NaCl. Background: Size exclusion chromatography separates by hydrodynamic size, large species first.

A word on the stoichiometry N: it is a count of units in the complex or per binding partner.

B1: gastrointestinal HAstV-VA1 capsid spike (HAstV-VA1^gastro spike), residues 408-684 (domain or fragment)
chain: PIPPTGVPVGDFYVCGRMTTLHMGGQSGIQATTLVNGMIYRTDHPEPSTSPVSNWEFTVLENNTIVGAGMGCVWFQKSEALVWTLDGQKLSGWNTLDGVGTTQLTVAWRQHNRTIYGWANVVAWNSEEWHTNAEQPHQPILRLTYWLVKINVLSEPEDFDVVQKSPLAYLEDYTTAQSKSAIQKLNFQTFQKPEGGGTLRAQYSTTPRQGDFAVIWQIGRHNFDMSTGKGTPVESLSDYVMPQQKDAHIGMWYRALTSVGPRSDVLTLHFHLPTVEK
notes: Capsid precursor protein (VP86, ORF2) of human astrovirus VA1, gastrointestinal strain, NCBI YP_003090288.1, spike structural domain residues 408-684; C-terminal thrombin site and 10-histidine tag; tag removed with thrombin before SEC and crystallisation; Homodimer; also called VA1 Spike^Gastro; HAstV-VA1 spike; source: E. coli T7 Express, purified (TALON, thrombin digestion, SEC on Superdex 200 …)
In the case of B1, the “stoichiometry N” value amounted to 2.
